From publication PMC4871238 (Nature structural & molecular biology, 2015)

T1: human SBDS (Shwachman-Bodian-Diamond syndrome protein) (human, UniProt Q9Y3A5 1-250)
T1 sequence: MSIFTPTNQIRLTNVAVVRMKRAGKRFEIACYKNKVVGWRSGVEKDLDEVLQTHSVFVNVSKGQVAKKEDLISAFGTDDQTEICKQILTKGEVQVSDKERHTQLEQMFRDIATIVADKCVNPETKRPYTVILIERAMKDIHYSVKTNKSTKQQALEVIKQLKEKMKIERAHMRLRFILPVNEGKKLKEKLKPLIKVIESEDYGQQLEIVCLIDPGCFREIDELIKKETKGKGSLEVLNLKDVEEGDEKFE

B1: Dictyostelium discoideum eIF6 (eukaryotic initiation factor 6), endogenous (natural protein)
chain: not shown
B2: Dictyostelium discoideum ribosomal protein uL14 (L23) (natural protein)
chain: not shown
B3: Dictyostelium discoideum ribosomal protein eL24 (L24) (natural protein, UniProt Q54VN6 1-127, looked up)
chain: MKTSLCNYSEFKIYPARGMKFVRGDSKVFHFINTKVESLFFRKINPRDIRWSMVYRRIYKNTTTDVSAKKKARKTKKVERNIVGASLEVIQQKRAQKPEVKQAAAEQAKREIKEKKKAAAKKAAPKK
B4: Dictyostelium discoideum ribosomal protein uL16 (L10) (natural protein, UniProt Q54J69 1-217, looked up)
chain: MGRRPARCYRYCKNKPYIKSRYCRGVPDAKIRIFDLGRKKASTDEFPLCVHLISLEKEQLSSEAIEAGRISCNKYISKTGGKDSFHMRVRVHPWHVLRINKMLSCAGADRLQTGMRGAFGKPMGTVARVNIGQIIFSIRTRDNMLANVVEALRRSSYKFPGRQKIVVSKKWGFTAYNREAYQKLKADGRLMNDGANVKVITNHGTLAQYAKDIAAAN
B5: Dictyostelium discoideum ribosomal protein uL11 (L12) (natural protein)
chain: not shown

Experiments:
Assay in all cases: cryo-EM structure
[1] = biological target: Dictyostelium discoideum ribosomal protein uL3 (L3) (Dictyostelium discoideum, UniProt P34113 1-398)
Chain of Dictyostelium discoideum ribosomal protein uL3 (L3) (P34113 whole entry): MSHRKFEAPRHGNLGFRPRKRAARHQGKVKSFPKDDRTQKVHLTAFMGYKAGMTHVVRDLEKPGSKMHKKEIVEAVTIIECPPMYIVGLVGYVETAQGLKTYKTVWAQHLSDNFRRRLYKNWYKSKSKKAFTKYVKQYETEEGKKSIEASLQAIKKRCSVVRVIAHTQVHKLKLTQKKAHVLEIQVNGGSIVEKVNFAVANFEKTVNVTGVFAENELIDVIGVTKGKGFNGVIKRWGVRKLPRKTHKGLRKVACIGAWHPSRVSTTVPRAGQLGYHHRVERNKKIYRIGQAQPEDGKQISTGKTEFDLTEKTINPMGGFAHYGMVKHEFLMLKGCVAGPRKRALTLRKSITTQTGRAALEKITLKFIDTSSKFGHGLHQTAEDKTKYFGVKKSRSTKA

[2] = biological target: B1
[3] = biological target: T1, human SBDS (Shwachman-Bodian-Diamond …)

binding result [2]	binding result [3]	Binder	further results
–	–	B1	binding result [1]: binds
binds	–	B2	–
binds	–	B3	–
–	binds	B4	–
–	binds	B5	–
